Laboratory results taken from the DeepSol protein solubility set.

Experiment: soluble on expression in E. coli; label from the status in PepcDB or PDB records

Row | Sequence | soluble on expression in E. coli
1 | AIAGSRGVLSIIFDLDNTLIDTAGAGRTAIQKVCELLKSTHVQESHIRDICERFLRKLLQESFDPSEGKTIDDVRIQHWCEALQETPGTDPDPALASRCYYTWKNTRSQALSLSSEVRALLEELQKNYKLLLLTNGDTQTQREKIEAVRCEGLFSLVVVGGDRPEQKPARSIFTHCFESAGVRPQDCIMVGDSLTTDIQGGINAGVRATVWINAGSKSLPQDSVTPDYTLPTVLHLNEVLAQLA | soluble
2 | AIAGTAFPTMAEVVAEVAEMPTQMSPGAVEMSTPMSAEMMEMSTEVTEMTPGEALASSLFFQHHQFMCSECGSLYNTLEEVLSHQEQHMLAVSEEEALTTQNVGLEPELVPGAEGPFQCGECSQLILSPGELLAHQDAHLRESANQIQYQCWDCQELFPSPELWVAHRKAQHLSATVAEPPVPPPLPPPTPLPPPSPPSEVKMEPYECPECSTLCATPEEFLEHQGTHFDSLEKEERNGLEEEEEDDEEDEEDDEEMEDEEAMAEVGDDAVGGDESTAGWAQGCGDCPQHQPSAGARRQHRRTAHSPASATHPFHCSQCQRSFSSANRLQAHGRAHVGGTHECTTCSKVFKKAASLEQHLRLHRGEARYLCVDCGRGFGTELTLVAHRRAHTANPLHRCRCGKTFSNMTKFLYHRRTHAGKSGAPPTGATAPPAPAEPTPPPPPPAPPAQLPCPQCSKSFASASRLSRHRRAVHGPPERRHRCGVCGKGFKKLIHVRNHLRTHTGERPFQCHSCGKTFASLANLSRHQLTHTGARPYQCLDCGKRFTQSSNLQQHRRLHLRPVAFARAPRLPITGLYNKSPYYCGTCGRWFRAMAGLRLHQRVHARARTLTLQPPRSPSPAPPPPPEPQQTIMCTELGETIAIIETSQPLALEDTLQLCQAALGASEAGGLLQLDTAFV | soluble
3 | AIAIRTKQSEAKSKGDTLRQLELAALMTHCNMLITHQQLALQAAMKLAYATKNYLYALAFAKRLLELAPNEEMERTAKKVMQFCERNPNNQNQLDYDIEQSNFAIDAGRLKPCIQPPTKSCVYCGACYDESWHSMTCVVCQVAQD | soluble
4 | AIALVGPAPTTDGSAENTLNEKRLVHGSIAFWLGPRAPQTKTHRWTVYVRGARDPLEDLSLYIQKVEFVLHESFADPVRVVKEPPFCLTEHGWGEFEVIIRLFPISDPDKPVEMYHPLRLFPSVGQELTEKPVVSEHLDVLVFSQPAPEVERALHRSDVARMPSDCWGDLMPLFGGDLHQVEEEDLRKVQQARERVRQQIQATRLQYEALTAELARARTHALHRELS | soluble
5 | AIAPAKSPSTRKKRARTKDEDEENVDTGNQTTAPTFRDKNLQLVHDFLASQNRPFSLQNILDSLANKGDMKKAALDKALTELVTSEYVTCKEYGKAKLYLIRQKNIALPSAEETAALDSRLETLANELEELSAECQVLEAKISELSAQPRTEEAKERVALLETETATIDERIEKLQVHCAGYDSSRRQYIQQQHERALKALRLRRSRARQIILQMAEGMERKPRELADEIGIESDSDDWLTASRSVVSNARSKAAV | soluble
6 | AIAREWKSQDAWKQHSLRLCFGVWPGTEFLHRPRAVHRRSGVVCSQMQTEDSHPETPQVPKESLQEEKDSSPATDASFIQSQDGKTVFLDRRTERRIQRGFVLTERGPRSIWKPAGTSSQRNERVPRRAAARGGAGPPDTTPQLATVRVLVLGANHVAQRLAELLSSHSRVCGCYFVSETTDEAAIESMKKYAYALPLRSALNDDEVVRVAEWVLADYVFLVPTGETHDDGVSLKDKERLERTLAQNRVTFMDENLTGLLLENPSLIDALFRARDSLEA | soluble
7 | AIASDEPKLSERSLHKFENVRIIIKDENKTCFQGELNIGEDWFCLLSEIDPSNSLRVNAKDLLLHAICQRDEHCEKPSIYCQVQGESDEDQYETIYIVPEESSQVEKIFETFCDLVRRTPVPLTDEEGSDGEWYGNVPWSVGNCDSEQFEDAEETDTQL | soluble
8 | AIASGAYDESAMSDETTDSFWEVGNYKRTVKRIEDGHRLCNDMMSCIQERAKIEKAYSQQLTDWSKRWRQLVERGPQYGTLERAWLAVMTEAEKVSELHQEVKNNLLNEDLEKVKNWQKDAYHKQMMGGFKETKEADEGFRKAQKPWAKKLKELETAKKTYHMACKEEKIASAREANSKGEASVTTDQQKKLQEKVDKCKNDVQKAKEKYEKSLDELNKCTPQYMENMEVVFDQCQQFEEKRLNFLREVLLDTKRHLNLTESQSYATVYRELERTIVSASAQEDLKWFSSVHGPGMHMNWPQFEEFNPDLSHAISKKEKVKRNHDGVTLTQVTHGAEHGTPQTGDRGSVSSYEKNQQYSAEWSDDEQPPTAAQSASETNGGNPFEEDSKGVRVRALYDYEGQEQDELTFKAGDELTKLEDEDEQGWCKGRLDSGQLGLYPANYVEPV | soluble
9 | AITGIFFGSDTGNTENIAKMIQKQLGKDVADVHDIAKSSKEDLEAYDILLLGIPTWYYGEAQCDWDDFFPTLEEIDFNGKLVALFGCGDQEDYAEYFCDALGTIRDIIEPRGATIVGHWPTAGYHFEASKGLADDDHFVGLAIDEDRQPELTAERVEKWVKQISEELHLDEILNA | soluble
10 | AKADSEQGNGEDKGTGTKGDGTGRGEGSGKGSGGVKGEHGEGAGSSKGNPLRANGSIPRPAYPTLSMENDEQGTVVLSVLVSPGGHVESVKIVKSSGFSRLDNAARKAAQNGHFQANAWTEFKVPVKFELN | soluble
11 | AKYYNEPCHTFNEYLLIPGLSTVDCIPSNVNLSTPLVKFQKGQQSEINLKIPLVSAIMQSVSGEKMAIALAREGGISFIFGSQSIESQAAMVHAVKNFKDSQKRYLVGAGINTRDFRERVPALVEAGADVLCIDSSDGFSEWQKITIGWIRDKYGDKVKVGAGNIVDGEGFRYLADAGADFIKIGIGGGSICITREQKGIGRGQATAVIDVVAERNKYFEETGIYIPVCSDGGIVYDYHMTLALAMGADFIMLGRYFARFEESPTRKVTINGSVMKEYWGEGSSRARNWQRYDLGGKQKLSFEEGVDSYVPYAGKLKDNVEASLNKVKSTMCNCGALTIPQLQSKAKITLVSSVSIVEGGAHDVIVKDRINDYHPK | soluble
12 | AMACWAQSQGYNCCNNPSSTKVEYTDASGQWGVQNGQWCGIDYSYGQNQGNESCTGNGSYPCCNTCQATYTDGDGDWAFENGNWCGIKNSCKQQPQNNNQ | soluble
13 | AMASASLCFLETENISKMAQILVDRCVEITNASFGFLYELVFGGDARILAVSSTAAVPAGGLCAQVKGHIEREGFFLVTPSDGLLFEPVKAGTTVLTNNPTTLDHLICRDSGNLGQINSFLGTPLKVGSRVVGMIGLTDRPDGFTDMERREIEAFAQTAALALHSARAEIEHKK | not soluble
14 | AMDIRQVTETIAMIEEQNFDIRTITMGISLLDCIDPDINRAAEKIYQKITTKAANLVAVGDEIAAELGIPIVNKRVSVTPISLIGAATDATDYVVLAKALDKAAKEIGVDFIGGFSALVQKGYQKGDEILINSIPRALAETDKVCSSVNIGSTKSGINMTAVADMGRIIKETANLSDMGVAKLVVFANAVEDNPFMAGAFHGVGEADVIINVGVSGPGVVKRALEKVRGQSFDVVAETVKKTAFKITRIGQLVGQMASERLGVEFGIVDLSLAPTPAVGDSVARVLEEMGLETVGTHGTTAALALLNDQVKKGGVMACNQVGGLSGAFIPVSEDEGMIAAVQNGSLNLEKLEAMTAICSVGLDMIAIPEDTPAETIAAMIADEAAIGVINMKTTAVRIIPKGKEGDMIEFGGLLGTAPVMKVNGASSVDFISRGGQIPAPIHSFKN | soluble
15 | ANIQSFSFKNFNSPSFILQGDATVSSGKLQLTKVKENGIPTPSSLGRAFYSSPIQIYDKSTGAVASWATSFTVKISAPSKASFADGIAFALVPVGSEPRRNGGYLGVFDSDVYNNSAQTVAVEFDTLSNSGWDPSMKHIGIDVNSIKSIATVSWDLANGENAEILITYNAATSLLVASLVHPSRRTSYILSERVDITNELPEYVSVGFSATTGLSEGYIETHDVLSWSFASKLPDDSTAEPLDLASYLVRNVL | soluble
16 | APQGINQFALLLNKQDTLTEFDTLVPGRFQAMRDGTRVTYTEELSKDRGELAGIFISQKDLNSSNQERGISILVAEKGTQNIQADGSRYLILHNGYRYDGNPGQANYRAIQYDTYGVMLPKPEASSEVSERDAVPTADLFGSDNPRYQAELQWR | not soluble
17 | APRTLYDKIWDDHVVHQSEDGTCLLYIDRHLVHEVTSPQAFEGLRMTGRKVRAPEKTIAVPDHNVPTTEGRDTKIDNEESRIQVEALDKNARDFGINYYPVSDIRQGIVHIVGPEQGWTLPGMTVVCGDSHTATHGAFGALAHGIGTSEVEHVLATQTLIQKKSKN | not soluble
18 | APTPAQMPSPTSFSDSIKQLAAETLPKYMQQLNSLDAEMLQKNHDQFATGSGPLRGSITQCQGLMQFCGGELQAEASAILNTPVCGIPFSQWGTIGGAASAYVASGVDLTQAANEIKGLAQQMQKLLSLMHHHHHH | soluble
19 | APVGPLGQVKLTVWYHSDEQKLISIIHSCRALRQNGRDLPDPYVSVLLLPDKNRSTKRKTPQKKRTLNPEFNERFEWDLPLDGTLRRKLDVSVKSNSSFMSRERELLGKVQLDLAEIDLSQGAAQWYDLMDDRDKGGS | soluble
20 | AQVPASGKLLVDPRYSTNDQEESILQDIITRFPNVVLMKQTAQLRAMMTIIRDKETPKEEFVFYADRLIRLLIEEALNELPFQKKEVTTPLDVSYHGVSFYSKICGVSIVRAGESMESGLRAVCRGVRIGKILIQRDETTAEPKLIYEKLPADIRERWVMLLDPMCATAGSVCKAIEVLLRLGVKEERIIFVNILAAPQGIERVFKEYPKVRMVTAAVDICLNSRYYIVPGIGDFGDRYFGTM | soluble
21 | ARAEQFTTSLLSIISNNNLLAKATSESIMGAAMKAAVLNLPIEPSLGFAYVVPYNRNYKDGNRWITVNEAQFQIGYRGLIQLAQRSGQVRNIEHGIIYEEEFLGYDKIRGQLKLTGDYVDSGVVKGYFASLELISGFYKMIFWPKEKVYEHAKKYSKTFDKKTGDFKPGTPWATEFDPMAIKTLLKELLSKYAPLSVEMQDALEADNADSTIVIPKDVTPQETNSLDDLIGTQ | not soluble
22 | ARFMAVSSELKDDTRTYTVAGQVFFASSDRFMSHFDFREAVERVVIDVTHAHFWDITSVSALDRVVIKFRREGTEVEIKGMNDATRTLVDRFGVHDKPEEVEKLMGGH | not soluble
23 | ARIRAPQEATVKEVHDAPAVRGSIIANMLQEHDNPFTLYPYDTNYLIYTQTSDLNKEAIASYDWAENARKDEVKFQLSLAFPLWRGILGPNSVLGASYTQKSWWQLSNSEESSPFRETNYEPQLFLGFATDYRFAGWTLRDVEMGYNHDSNGRSDPTSRSWNRLYTRLMAENGNWLVEVKPWYVVGNTDDNPDITKYMGYYQLKIGYHLGDAVLSAKGQYNWNTGYGGAELGLSYPITKHVRLYTQVYSGYGESLIDYNFNQTRVGVGVMLNDLF | soluble
24 | ASASYYEQYHSLNEIYSWIEFITERHPDMLTKIHIGSSFEKYPLYVLKVSGKEQAAKNAIWIDCGIHAREWISPAFCLWFIGHITQFYGIIGQYTNLLRLVDFYVMPVVNVDGYDYSWKKNRMWRKNRSFYANNHCIGTDLNRNFASKHWCEEGASSSSCSETYCGLYPESEPEVKAVASFLRRNINQIKAYISMHSYSQHIVFPYSYTRSKSKDHEELSLVASEAVRAIEKTSKNTRYTHGHGSETLYLAPGGGDDWIYDLGIKYSFTIELRDTGTYGFLLPERYIKPTCREAFAAVSKIAWHVIRNV | soluble
25 | ATALAGSNGVCIAYYITDGRNPTFKLKDIPDKVDMVILFGLKYWSLQDTTKLPGGTGMMGSFKSYKDLDTQIRSLQSRGIKVLQNIDDDVSWQSSKPGGFASAAAYGDAIKSIVIDKWKLDGISLDIEHSGAKPNPIPTFPGYAATGYNGWYSGSMAATPAFLNVISELTKYFGTTAPNNKQLQIASGIDVYAWNKIMENFRNNFNYIQLQSYGANVSRTQLMMNYATGTNKIPASKMVFGAYAEGGTNQANDVEVAKWTPTQGAKGGMMIYTYNSNVSYANAVRDAVKN | soluble
